Source: US11813311B2, “Treatment and prevention of metabolic diseases” (Singapore Health Services PTE LTD., priority 2019, dated 2023)

Columns and labels:
[1] = tested on: MCD-fed db/db mice; assay: MCD-fed db/db mouse NASH model; type: in vivo
Method: FIGS. 20A to 20N. Therapeutic targeting of Il-11 inhibits and reverses NASH pathologies in preclinical models. (A) Schematic showing therapeutic use of X203 and X209 (10 mg/kg, biweekly) in HFMCD-fed mice for experiments shown in (B-E). X203, X209 or IgG isotype control were administered from week 6 to 10 of HFMCD diet. (B) Representative liver histological images (Masson's Trichrome staining; scale bars, 100 μm), (C) relative liver hydroxyproline content, (D) relative liver pro-inflammatory mRNA expression levels (n≥6/group) and (E) serum ALT levels. (F) Western blots of hepatic Erk activation status. (G) Schematic of X203 or IgG administration to MCD-fed db/db mice for experiments shown in H-N. Western blots of hepatic (H) Il-11 and Gapdh, (I) p-Erk and Erk. (J) Representative Masson's Trichrome images of liver from X203 or IgG-treated MCD-fed db/db mice (scale bars, 100 μm). The levels of (K) hepatic triglyceride, (L) relative liver hydroxyproline, (M) serum ALT, and (N) mRNA expression of liver pro-inflammatory markers (n≥5/group). (C-E,K-N) Data are shown as box-and-whisker with median (middle line), 25th-75th percentiles (box) and min-max percentiles (whiskers); two-tailed, Tukey-corrected Student's t-test. FC: fold change; NC: normal chow; HFMCD: high fat methionine- and choline-deficient; MCD: methionine- and choline-deficient.
Male BKS.Cg-Dock7m+/+LeprdbJ (db/db) mice on C57BL/6J genetic background were 12 weeks of age and at the hepatic steatosis stage when they were fed methionine- and choline-deficient diet (MCD, A02082002BRi, Research Diets) for 8 weeks; control mice were of the same genotype. Durations of diet and antibody therapies are described.
Mice were injected intraperitoneally with either antagonist anti-IL-11 antibody, antagonist anti-IL11RA antibody or an identical amount of IgG isotype control for the treatment durations outlined in the figures.

[2] = tested on: mice with UUO-induced kidney injury; assay: Weight loss after UUO-induced acute kidney injury; type: in vivo, mouse; conditions: 20 mg/kg 2×/week from day 4 post-UUO
Method: In further experiments, mice were subjected to unilateral ureter obstruction (UUO)-induced acute kidney injury. UUO surgeries were carried out on 12-week old mice. Briefly, mice were anesthetized by IP injection of ketamine (100 mg/kg)/xylazine (10 mg/kg) and full depth of anaesthesia was accessed with the pedal reflex. Mice were then shaved on the left side of the abdomen. A vertical incision was made through the skin with a scalpel, a second incision was made through the peritoneum to reveal the kidney. Using forceps, the kidney was brought to the surface and the ureter was tied with surgical silk, twice, below the kidney. The ligated kidney was placed gently back into its correct anatomical position and sterile saline was added to replenish loss of fluid. The incisions were then sutured. Animals were post-operatively treated with antibiotic enrofloxacin (15 mg/kg, SC) and analgesic buprenorphine (0.1 mg/kg, SC) for three consecutive days. Mice were sacrificed 10 days post-ligation. Mice were intraperitoneally injected with 20 mg/kg (2×/week) of anti-IL-11 antibody or identical concentration of IgG isotype control from day 4 post-surgery until the mice were sacrificed.

[3] = tested on: mice with PDL; assay: Pancreatic duct ligation (PDL) model of pancreatic injury; type: in vivo, mouse; conditions: 14 days
From the text: FIGS. 50A to 50C. Schematic, box plot and images relating to the effect of antagonism of IL-11 mediated signalling in a pancreatic duct ligation (PDL) model of pancreatic injury. (A) Schematic representation of experiment in which pancreatic injury is induced by PDL, and wherein mice are subsequently treated with neutralising anti-IL-11 RA antibody or IgG isotype control antibody. (B) Ligated lobe weight for mice treated with neutralising anti-IL-11 RA antibody or IgG isotype control antibody at 14 days. (C) Representative images of Masson's Trichrome staining of pancreatic tissue from mice treated with neutralising anti-IL-11 RA antibody or IgG isotype control antibody at 14 days.

[4] = tested on: PSCs; assay: Pancreatic stellate cell (PSC) activation in vitro; type: cell-based; conditions: 24 hours
Method: FIGS. 48A and 48B. Box plots and images showing activation of pancreatic stellate cells (PSCs) to a αSMA-positive, collagen-expressing fibrogenic phenotype. (A) Quantification of high-content imaging assays for the percentage of ACTA2-positive cells and collagen I intensity/area following in vitro stimulation of PSCs for 24 hours with the indicated factors, in the presence or absence of neutralising anti-IL-11 RA antibody or IgG isotype control antibody. (B) Representative images for high-content imaging analysis of collagen I intensity/area following in vitro stimulation of PSCs for 24 hours with the indicated factors, in the presence of neutralising anti-IL-11 RA antibody or IgG isotype control antibody.

[5] = tested on: ERK; assay: ERK activation in HSCs (Western blot); type: cell-based, human; conditions: HSCs, antibody 2 μg/ml
Method: Western blots were carried out on total protein extracts from HSCs and liver tissues. Both cells and frozen tissues were homogenized in radioimmunoprecipitation assay (RIPA) buffer containing protease and phosphatase inhibitors (Thermo Scientifics), followed by centrifugation to clear the lysate. Protein concentrations were determined by Bradford assay (Bio-Rad). Equal amount of protein lysates were separated by SDS-PAGE, transferred to PVDF membrane, and subjected to immunoblot analysis for the indicated primary antibodies. Proteins were visualized using the ECL detection system (Pierce) with the appropriate secondary antibodies.

| Molecule | ALT levels [1] | hepatic Erk activation [1] | hepatic fibrosis [1] | hepatic inflammation [1] | hepatic steatosis [1] | regain of body weight [2] | time to return to normal weight [2] | pancreatic fibrosis [3] | reduction in pancreatic tissue associated with PDL [3] | PSC activation irrespective of the stimulus (TGFβ1, IL-11, bFGF, CTGF, PDGF or ET-1) [4] | ERK phosphorylation downstream of all factors, including IL-11 [5] |
| --- | --- | --- | --- | --- | --- | --- | --- | --- | --- | --- | --- |
| X203: mouse anti-mouse IL-11 IgG (IgG1κ), neutralising; VH SEQ ID NO:22, VL SEQ ID NO:23 (antibody, V domains shown, Enx203 VH; Enx203 VL) VH: EVQLQQSGPELVKPGASVKIPCKASGYTFTDYNMDWVKQSHGKSLEWIGDINPHNGGPIYNQKFTGKATLTVDKSSSTAYMELRSLTSEDTAVYYCARGELGHWYFDVWGTGTTVTVSS VL: DIVLTQSPASLAVSLGQRATISCRASKSVSTSGYSYIHWYQQKPGQPPKLLIYLASNLDSGVPARFSGSGSGTDFTLNIHPVEEEDAATYYCQHSRDLPPTFGGGTKLEIK | lowering | inhibited | reduced | reduced | reduced | regained their body weight more quickly than those receiving IgG control | ≤ 4 days |  |  |  |  |
| X209: mouse anti-mouse IL-11Rα IgG (IgG1κ), neutralising; VH SEQ ID NO:24, VL SEQ ID NO:25 (antibody, V domains shown, Enx209 VH; Enx209 VL) VH: QVQLQQPGAELVRPGSSVKLSCKASGYTFTNYWMHWLKQRPVQGLEWIGNIGPSDSKTHYNQKFKDKATLTVDKSSSTAYMQLNSLTSEDSAVYYCARGDYVLFTYWGQGTLVTVSA VL: DIVLTQSPATLSLSPGERATLSCRASQSISNNLHWYQQKSHEAPRLLIKYASQSISGIPARFSGSGSGTDFTLSFSSLETEDFAVYFCQQSYSWPLTFGQGTKLEIK |  |  |  |  |  |  |  | reduced pancreatic fibrosis | inhibited | inhibited | abolished |
